# B1: aluC09M33: cytochrome P450 aluC09 mutant T291I; amino acid sequence SEQ ID NO: 44 (protein, listed as Amycolatopsis lurida)
# chain: MTDVEETTATLPLARKCPFSPPPEYERLRRESPVSRVGLPSGQTAWALTRLEDIREMLSSPHFSSDRQSPSFPLMVARQIRREDKPFRPSLIAMDPPEHSRARRDVVGEFTVKRMKALQPRIQQIVDEHLDALLAGPKPADLVQALSLPVPSLVICELLGVPYSDHEFFQSCSSRMLSREVTAEERMTAFEQLENYLDELVTKKEANATEDDLLGRQILKQRETGEADHGELVGLAFLLLIAGHETTANMISLGTVTLLENPDQLAKIKADPGKTLAAIEELLRVFTIAEIATSRFATADVEIGGTLIRAGEGVVGLSNAGNHDPDGFENPDTFDIERGARHHVAFGFGVHQCLGQNLARLELQIVFDTLFRRVPGLRIAVPVDELPFKHDSTIYGLHALPVTW
# Tests used:
# Type in all cases: biochemical
# [1] = Metabolism of ruxolitinib by P450 aluC09 and mutants; conditions: percent of substrate being converted; 0.125 mg/ml, 27° C., 16-20 hours; [CYP] per enzyme as in Table 8
# Protocol: (§1) Lyophilised material of mutants of CYP450aluC09, ferredoxinaluF03 and ferredoxin reductaseSCF15A was made as described in examples 3 and 4 and suspended in water (0.5 mL per vial) and biocatalysis was performed at 27° C. in the following conditions: 50 mM potassium phosphate pH 7.4, 5 mM MgCl2, 0.125 mg/ml substrate compound such as diclofenac (Sigma-Aldrich, UK), Aceclofenac (Tokyo Chemical Industry UK Ltd, UK), Indomethacin (Sigma-Aldrich, UK), Flufenamic acid (Sigma-Aldrich, UK), Napropamide (Sigma-Aldrich, UK), celecoxib (LC Laboratories, USA), valsartan (Tokyo Chemical Industry UK Ltd, UK), ruxolitinib (LC Laboratories, USA), 4-pyrrolidylacetophenone (Sigma-Aldrich, UK), tofacitinib (LC Laboratories, USA), bosentan (CarboSynth Ltd, UK), buparvaquone (MedChemtronica, Sweden), BIRB796 (Stratech Scientific Limited, UK), epothilone B (LC Laboratories, USA), ritonavir (Tokyo Chemical Industry UK Ltd, UK) or tivantinib (MedChemtronica, Sweden), P450AluC09 (concentration as in Table 8), 5 mM G6P, 1 mM NADP, 2 UN/ml G6PDH in a final volume of 100 μL. After 16-20 hours at 200 rpm (5 cm orbital shaker, Kuhner AG, Switzerland), reactions were extracted with an equal volume of acetonitrile, centrifuged to remove precipitated proteins and conversion assessed by UPLC-MS analysis.
# (§2) However, of particular note when considering P450 concentration are the results for mutants M12, M20 and M34, as well as the deleterious impact on the range of substrate utility in mutants M39 and M40.
# [2] = Hydroxylation of flufenamic acid catalysed by cytochrome P450 aluC09 and mutants
# Protocol: as §1
# (§3) UPLC data was obtained as follows:
# (§4) Column: Acquity UPLC BEH Shield RP18 1.7 μm 2.1 mm i.d. 50 mm length
# (§5) Solvents: H2O, B: Acetonitrile, both with 0.1% Formic acid
# (§6) Detector: Waters Acquity UPLC PDA (UV-Vis detection) and Waters Acquity UPLC QDA (MS)
# Flufenamic acid elutes at 1.93 minutes, hydroxy-flufenamic acid 1 elutes at 1.68 minutes and hydroxy-flufenamic acid 2 elutes at 1.65 minutes.
# [3] = Metabolism of 4-pyrrolidylacetophenone by P450 aluC09 and mutants; conditions: percent of substrate being converted; 0.125 mg/ml, 27° C., 16-20 hours; [CYP] per enzyme as in Table 8
# Protocol: as §1, §2
# [4] = Metabolism of tofacitinib by P450 aluC09 and mutants; conditions: percent of substrate being converted; 0.125 mg/ml, 27° C., 16-20 hours; [CYP] per enzyme as in Table 8
# Protocol: as §1, §2
# [5] = Metabolism of valsartan by P450 aluC09 and mutants; conditions: percent of substrate being converted; 0.125 mg/ml, 27° C., 16-20 hours; [CYP] per enzyme as in Table 8
# Protocol: as §1, §2
# [6] = Metabolism of epothilone B by P450 aluC09 and mutants; conditions: percent of substrate being converted; 0.125 mg/ml, 27° C., 16-20 hours; [CYP] per enzyme as in Table 8
# Protocol: as §1, §2
# [7] = Hydroxylation of aceclofenac catalysed by cytochrome P450 aluC09 and mutants
# Protocol: as §1, §3, §4, §5, §6
# Chromatograms are provided in FIGS. 5a-c; aceclofenac elutes at 1.80 minutes, hydroxy-aceclofenac acid 1 elutes at 1.64 minutes, hydroxy-aceclofenac acid 2 elutes at 1.60 minutes and dihydroxy-aceclofenac elutes at 1.42 minutes.
# [8] = Hydroxylation of diclofenac catalysed by cytochrome P450 aluC09 and mutants (UPLC-PDA-MS)
# Protocol: as §1, §3, §4, §5, §6
# Illustrative results for the hydroxylation of diclofenac by CYP450aluC09 and selected T291x mutants are summarised below in Table 3 with representative chromatograms resented in FIG. 3a-c; retention times: diclofenac 1.85-1.88 minutes, 5-hydroxydiclofenac 1.60-1.63 minutes, 4′-hydroxydiclofenac 1.65-1.68 minutes, 4′,5-dihydroxydiclofenac 1.40-1.42 minutes. The chromatographic retention times and mass spectra coincided with those of authentic samples.
# [9] = Metabolism of BIRB796 by P450 aluC09 and mutants; conditions: percent of substrate being converted; 0.125 mg/ml, 27° C., 16-20 hours; [CYP] per enzyme as in Table 8
# Protocol: as §1, §2
# [10] = Metabolism of buparvaquone by P450 aluC09 and mutants; conditions: percent of substrate being converted; 0.125 mg/ml, 27° C., 16-20 hours; [CYP] per enzyme as in Table 8
# Protocol: as §1, §2
# [11] = Metabolism of celecoxib by P450 aluC09 and mutants; conditions: percent of substrate being converted; 0.125 mg/ml, 27° C., 16-20 hours; [CYP] per enzyme as in Table 8
# Protocol: as §1, §2
# [12] = Metabolism of bosentan by P450 aluC09 and mutants; conditions: percent of substrate being converted; 0.125 mg/ml, 27° C., 16-20 hours; [CYP] per enzyme as in Table 8
# Protocol: as §1, §2
# [13] = Hydroxylation / de-N-ethylation of napropamide catalysed by cytochrome P450 aluC09 and mutants
# Protocol: as §1, §3, §4, §5, §6
# Napropamide elutes at 1.76 minutes, unidentified metabolite (−2 Da) elutes at 1.90 minutes, desethyl-napropamide elutes at 1.62 minutes, hydroxy-napropamide 1 elutes at 1.53 minutes and hydroxy-napropamide 2 elutes at 1.52 minutes and the desethyl-hydroxy-napropamide product elutes at 1.41 minutes.
# [14] = O-demethylation of indomethacin catalysed by cytochrome P450 aluC09 and mutants; conditions: % by UV peak area at 275 nm; 0.125 mg/ml substrate, 27° C., 16-20 hours
# Protocol: as §1, §3, §4, §5, §6
# [15] = Metabolism of ritonavir by P450 aluC09 and mutants; conditions: percent of substrate being converted; 0.125 mg/ml, 27° C., 16-20 hours; [CYP] per enzyme as in Table 8
# Protocol: as §1, §2
# [16] = Metabolism of tivantinib by P450 aluC09 and mutants; conditions: percent of substrate being converted; 0.125 mg/ml, 27° C., 16-20 hours; [CYP] per enzyme as in Table 8
# Protocol: as §1, §2
# [17] = % by UV peak area at 275 nm, 0.125 mg/ml substrate, 27° C., 16-20 hours
molecule,measurement,setting,value
B1,% conversions (avg) Ruxolitinib,[1],30.6%
same,Flufenamic Acid (Substrate) 1.93 mins,[2]; [17],98.3%
same,Hydroxy-Flufenamic Acid (1) 1.69 mins,[2]; [17],1.0%
same,Hydroxy-Flufenamic Acid (2) 1.65 mins,[2]; [17],0.6%
same,Hydroxylated Ratio 1:2,"[2]; flufenamic acid, ratio of UV peak areas at 275 nm",1.6
same,% conversions (avg) 4-pyrrolidylacetophenone,[3],7.9%
same,% conversions (avg) Tofacitinib,[4],1.1%
same,% conversions (avg) Valsartan,[5],12.4%
same,% conversions (avg) Epothilone B,[6],21.8%
same,regioselectivity of hydroxylation of aceclofenac compared to the wild-type enzyme,[7],reversal of the regioselectivity
same,Aceclofenac (Substrate) (1.80 mins),[7]; [17],30.8%
same,Dihydroxy-Aceclofenac (1.42 mins),[7]; [17],8.8%
same,Hydroxy-Aceclofenac (1) (1.64 min),[7]; [17],41.7%
same,Hydroxy-Aceclofenac (2) (1.60 min),[7]; [17],18.6%
same,Hydroxylated Ratio 2:1,"[7]; aceclofenac, ratio of UV peak areas at 275 nm",0.4
same,"4′,5-dihydroxy-diclofenac 1.38 mins",[8]; [17],1.1%
same,4′-hydroxy-diclofenac (1) 1.62 mins,[8]; [17],29.5%
same,5-hydroxy-diclofenac (2) 1.58 mins,[8]; [17],6.7%
same,Diclofenac (Substrate) 1.81 mins,[8]; [17],63.3%
same,regioselectivity of hydroxylation (product ratio 4′-hydroxydiclofenac : 5-hydroxydiclofenac),[8]; diclofenac,over four-fold
same,Hydroxylated Ratio hydroxy 1:hydroxy 2,"[8]; diclofenac, ratio of UV peak areas at 275nm",4.4
same,% conversions (avg) BIRB796,[9],13.5%
same,% conversions (avg) Buparvaquone,[10],8.2%
same,% conversions (avg) Celecoxib,[11],2.8%
same,% conversions (avg) Bosentan,[12],98.9%
same,Desethyl Napropamide (1.62 min),[13]; [17],30.6%
same,Desethyl-hydroxy-Napropamide (1.41 min),[13]; [17],5.7%
same,Hydroxy-Napropamide (1) (1.53 min),[13]; [17],1.8%
same,"Hydroxy-Napropamide (2), (1.52 min)",[13]; [17],4.1%
same,M-2Da (unidentified) (1.89 min),[13]; [17],5.1%
same,Napropamide (substrate),[13]; [17],56.0%
same,Hydroxylated Ratio 2:1,"[13]; napropamide, ratio of UV peak areas",2.3
same,Indomethacin (1.74 mins),[14],92.8%
same,O-demethyl-Indomethacin (1.52 mins),[14],7.2%
same,% conversions (avg) Ritonavir,[15],41.3%
same,% conversions (avg) Tivantinib,[16],29.6%

# Source: US11618906B2, “Hydroxylation techniques” (HYPHA DISCOVERY LTD., priority 2018, dated 2023)
